Common to all, as to settings: 20 nM; 72 h
The test system of data set [1] is MCF10A. The data set is described as follows: percent viability (nuclei count relative to siNT); higher = more viable cells. On the procedure: (§1)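 After 72 h, cells were fixed and stained with Hoechst and anti-fibrillarin, and nucleoli per nucleus were counted with CellProfiler. Values are plate-adjusted percent effect for the one-nucleolus and 5+ nucleoli phenotypes, normalised to siNT (0%) and to the positive controls siNOL11 or siKIF11 (100%), as the mean of biological triplicates. Percent viability is the nuclei count relative to siNT.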

Data set [2] concerns MCF10A. In words: 5+ nucleoli phenotype percent effect (relative to siNT 0% and siKIF11 100%); higher = more cells with five or more nucleoli. On the procedure:
as §1

Data set [3] relates to MCF10A. In words: one-nucleolus phenotype percent effect (relative to siNT 0% and siNOL11 100%); higher = more cells with one nucleolus (ribosome biogenesis inhibition). On the procedure:
as §1

“AGUGCCUGCUAUGUGCCAGGCA [hsa-miR-1271-3p]”: the percent viability in the data set with MCF10A [1] was determined as 39.3%. Moreover, in the data set with MCF10A [2], the “5+ nucleoli phenotype percent effect” value is 4.16%. Further, the “one-nucleolus phenotype percent effect” value with MCF10A [3] was -6.99%.
With AACAUUCAUUGUUGUCGGUGGGU [hsa-miR-181d], the percent viability with MCF10A [1] amounted to 91.1%. For the same sequence, the “5+ nucleoli phenotype percent effect” value in the data set with MCF10A [2] is 12.5%. For the same sequence, in the data set on MCF10A [3], the “one-nucleolus phenotype percent effect” value was -6.07%.
For the sequence GAGUUCUACAGUCAGAC [hsa-miR-3168], the percent viability with MCF10A [1] amounted to 22.3%. Besides, the “5+ nucleoli phenotype percent effect” value in the data set with MCF10A [2] was -12.9%. In addition, the “one-nucleolus phenotype percent effect” value with MCF10A [3] is -2.63%.
Consider “UGAGAACUGAAUUCCAUGGGUU [hsa-miR-146a-5p]”, for which, in the data set on MCF10A [1], the percent viability turned out to be 51.1%. Further, the “5+ nucleoli phenotype percent effect” value with MCF10A [2] was -31.6%. In the data set on MCF10A [3], the “one-nucleolus phenotype percent effect” value was 9.23%.
On to UGUGACCCUAGAAUAAUUAC [hsa-miR-7973], for which the percent viability with MCF10A [1] worked out at 29.4%. In addition, the “5+ nucleoli phenotype percent effect” value with MCF10A [2] is -4.82%. In the data set with MCF10A [3], the “one-nucleolus phenotype percent effect” value was -2.95%.
Take UAUGUGACCUCGGAUGAAUCA [hsa-miR-4501]: the percent viability in the data set with MCF10A [1] turned out to be 19.8%. Moreover, the “5+ nucleoli phenotype percent effect” value in the data set on MCF10A [2] is -23.6%. Further, the “one-nucleolus phenotype percent effect” value in the data set with MCF10A [3] was determined as 40.8%.
Take “UCUGCUCAUACCCCAUGGUUUCU [hsa-miR-767-3p]”: the percent viability in the data set with MCF10A [1] came out at 129%. Further, the “5+ nucleoli phenotype percent effect” value in the data set with MCF10A [2] is 54.2%. Also, the “one-nucleolus phenotype percent effect” value with MCF10A [3] was -21.6%.
Turning to “GAAAUCAAGCGUGGGUGAGACC [hsa-miR-551b-5p]”, the percent viability in the data set on MCF10A [1] is 57.5%. Moreover, the “5+ nucleoli phenotype percent effect” value in the data set with MCF10A [2] was determined as 40.3%. The “one-nucleolus phenotype percent effect” value with MCF10A [3] was -15.5%.
Taken in the same sequence, the figures for GCUGGUGCAAAAGUAAUGGCGG [hsa-miR-548q] were 30.5%, -16.7% and 46%.
Turning to “UGUCUUACUCCCUCAGGCACAU [hsa-miR-550a-3p]”, in the data set with MCF10A [1], the percent viability was determined as 60.2%. Also, the “5+ nucleoli phenotype percent effect” value in the data set on MCF10A [2] was -24%. Further, the “one-nucleolus phenotype percent effect” value with MCF10A [3] is 15.4%.
For AGGAGAUCCUGGGUU [hsa-miR-3676-5p], the percent viability in the data set on MCF10A [1] worked out at 30.1%. For the same sequence, the “5+ nucleoli phenotype percent effect” value in the data set on MCF10A [2] is -13.3%. The “one-nucleolus phenotype percent effect” value with MCF10A [3] was 18.3%.
Take UCACCUGGCUGGCCCGCCCAG [hsa-miR-6765-3p]: the percent viability in the data set on MCF10A [1] was 63.1%. Besides, the “5+ nucleoli phenotype percent effect” value in the data set on MCF10A [2] amounted to 30.1%. The “one-nucleolus phenotype percent effect” value with MCF10A [3] is -20.5%.
On to “UGGGAUCCAGACAGUGGGAGAA [hsa-miR-4713-3p]”, for which the percent viability in the data set on MCF10A [1] came to 26%. In addition, the “5+ nucleoli phenotype percent effect” value in the data set with MCF10A [2] was determined as 16.3%. The “one-nucleolus phenotype percent effect” value with MCF10A [3] is -1.28%.
Taken in the same sequence, the figures for CAGCCUGACAGGAACAG [hsa-miR-4293] were 33.8%, 4.42% and -6.3%.
As to “UUGAGGGGAGAAUGAGGUGGAGA [hsa-miR-6734-5p]”, in the data set with MCF10A [1], the percent viability was 35%. The “5+ nucleoli phenotype percent effect” value in the data set with MCF10A [2] was determined as 2.95%. Moreover, in the data set on MCF10A [3], the “one-nucleolus phenotype percent effect” value is -5.42%.
In the case of UCACACCUGCCUCGCCCCCC [hsa-miR-1228-3p], the percent viability with MCF10A [1] amounted to 64.7%. Further, in the data set on MCF10A [2], the “5+ nucleoli phenotype percent effect” value was -13.8%. Also, the “one-nucleolus phenotype percent effect” value in the data set with MCF10A [3] worked out at 5.12%.
For the sequence UCCGUACAAACUCUGCUGUG [hsa-miR-3678-5p], the percent viability in the data set on MCF10A [1] is 64.4%. For the same sequence, the “5+ nucleoli phenotype percent effect” value in the data set on MCF10A [2] is -49.2%. Besides, the “one-nucleolus phenotype percent effect” value in the data set on MCF10A [3] is 39.4%.
On the same counts, the results for CAAGCUCGCUUCUAUGGGUCUG [hsa-miR-99a-3p] are 70%, -16.1% and 23.3%.
Turning to UACAGUACUGUGAUAACUGAA [hsa-miR-101-3p], the percent viability with MCF10A [1] was 86%. In the data set with MCF10A [2], the “5+ nucleoli phenotype percent effect” value was -26.5%. For the same sequence, in the data set on MCF10A [3], the “one-nucleolus phenotype percent effect” value is 11.6%.
Regarding UGCUUCCUUUCAGAGGGU [hsa-miR-516b-3p], the percent viability in the data set with MCF10A [1] is 78.4%. In addition, the “5+ nucleoli phenotype percent effect” value in the data set with MCF10A [2] is -29.9%. Moreover, the “one-nucleolus phenotype percent effect” value with MCF10A [3] worked out at 8.29%.

These data come from the supplement of paper PMC10899765.
